Measured values from patent US20050026219.

Legend:
[1] = tested on: T1, Raytide EL (protein-tyrosine-kinase substrate, MW 2476 Dalton, Messrs. Calbiochem)
T1 sequence: KKKGPWLEEEEEAYGWLDF

[2] = tested on: oligopeptide Ac-Ile-Tyr-Gly-Glu-Phe-NH2 "M-2165" (Messrs. Bachem, MW 668.8)

Substance | phosphorylation of the substrate, detected by RIfS through the fall of free anti-phosphotyrosine antibody [1] | phosphorylation of the substrate, detected by RIfS (AMD sensor) through the fall of free anti-phosphotyrosine antibody [2] | phosphorylation of the substrate, detected by RIfS (diamino-PEG 2000 sensor) through the fall of free anti-phosphotyrosine antibody [2]
Epidermal Growth Factor Receptor Kinase (EGF-RK) isolated from human A 431 carcinoma cells (Messrs. Sigma) | The phosphorylation with the alternative substrate (SEQ ID NO.:3) Raytide™ EL is clearly detectable. |  | 
p60c-src-kinase isolated from human cells (Messrs. Calbiochem) |  | The phosphorylation is very clearly detectable. | The phosphorylation is very clearly detectable.
